Target: FITC-BIM SAHBA2
Test: fluorescence polarisation; direct binding: FITC-BIM SAHBA2 (50 nM) with serial dilutions of full-length BAX, read at 20 min

## Human, recombinant and tagless BAX (from UniProt Q07812 1-192) (natural protein)
  EC75: 500 nM

— paper PMC8901805
